Data set [1] is described as follows: Chemical stability of the synthesized conjugates. Type of data set: physicochemical. How it is done: In brief, 50 mg of TRS was dissolved in 2.5 mL of water and 50 equivalents of acetaldehyde were added (at room temperature). Then, the pH was adjusted to 6.8. The solution was shaken over the weekend and analyzed by an analytical HPLC. […] The reaction mixture was purified by a preparative HPLC, to isolate the phosphorylcholine tuftsin conjugate of Formula 3A.
The phosphorylcholine tuftsin conjugate of Formula 3A was dissolved in 0.1% formic acid in water and the pH was adjusted to 2.7. After 30 min, the solution was lyophilized. The crude reaction mixture was purified by preparative HPLC to obtain the phosphorylcholine tuftsin conjugate of Formula 2A.

Data set [2] in a line: Biological activity (test not specified).
The next data set concerns yeasts (S. cerevisiae). Description: Yeast fermentation activity (gas formation) in aqueous suspension with sucrose. Format: cell-based. To be noted: FIG. 2. How it is done:
Yeast fermentation activity was correlated to the formation of bubbles within the aqueous suspension.
In brief, varying amount of 1% w/w solution of TRS was added to an aqueous suspension containing yeasts (S. cerevisiae) and a sufficient amount of sucrose, to obtain aqueous compositions containing 4 ppm, 20 ppm, 40 ppm, and 80 ppm of TRS. The gas formation (fermentation activity) of the aqueous suspension with TRS (hereinafter, “the sample”) was quantified by evaluating the volume of the released gas and compared to a similar aqueous yeast suspension devoid of TRS (hereinafter, “the control”).
Further, the phosphorylcholine tuftsin conjugate (PC) of Formula 2A synthesized as disclosed herein, has been tested to evaluate its antifungal activity. The inventors performed a similar experiment, as disclosed above, using varying concentrations of the phosphorylcholine tuftsin conjugate of Formula 2 (i.e. 6.7 ppm, 20 ppm, 40 ppm, and 80 ppm).

Data set [3] in a line: Solubility of drug substance in water. Type of data set: physicochemical. How it is done: Drug Substance [TRS]: is a trifluoroacetate [TFA] salt of phosphorylcholine-tuftsin conjugate represented by Formula 1 (as shown herein). Molecular formula: C43H68N13O13P, Appearance: Yellow to orange solid. Solubility: >40 mg/ml in water.

*1 amine or outer side, *2 acyl side, *3 side chain or, on linkers, in order; H or OH if unused. Where a SMILES comes first, the peptide text is derived from it. [ ]: non-standard residue; d: D form. X1 = C[N+](C)(C)CCOP(=O)([O-])Oc1ccc(/N=N/c2cc(C[C@H](N[*:1])C(=O)[*:2])ccc2O)cc1; X2 = C[N+](C)(C)CCOP(=O)(O)Oc1ccc(/N=N\c2cc(CC(N[*:1])C(=O)[*:2])ccc2O)cc1; NMeT = CN[CH](C(=O)O)[CH](C)O

Turning to `CC1NC([C@@H](C)O)C(=O)N1[C@@H](CCCCN)C(=O)N1CCCC1C(=O)N[C@@H](CCCNC(=N)N)CNCC(=O)N[C@@H](Cc1ccc(O)c(/N=N\c2ccc(OP(=O)(O)OCC[N+](C)(C)C)cc2)c1)C(=O)O` (stereo partly shown) [Formula 2A], the chemical stability entry in data set [1] is on record as “sufficient chemical stability”. Also, the biological activity entry in data set [2] is listed as “solid biological activity”.

As to `CC(O)C1NC(C)N(C(CCCCN)C(=O)N2CCCC2C(=O)NC(CCCNC(=N)N)C(=O)NCC(=O)NC(Cc2ccc(O)c(N=Nc3ccc(OP(=O)(O)OCC[N+](C)(C)C)cc3)c2)C(=O)O)C1=O` (stereo not shown) [Formula 2], the “yeast activity vs control” value was “almost completely eliminated” in the data set on yeasts (S. cerevisiae) (80 ppm) and “significant reduction of the yeast activity” with yeasts (S. cerevisiae) (lowest concentration of about 7 ppm (6.7 ppm)).

In the case of `C/C=N/CCCC[C@@H](C(=O)N1CCCC1C(=O)N[C@@H](CCCNC(=N)N)CNCC(=O)N[C@@H](Cc1ccc(O)c(/N=N/c2ccc(OP(=O)(O)OCC[N+](C)(C)C)cc2)c1)C(=O)O)N1C(=O)C([C@@H](C)O)NC1C` (stereo partly shown) [Formula 3A], the “hydrolysis (converted into PC of Formula 2A)” value in data set [1] (at acidic pH) is “undergoes hydrolysis”.

As for `CNC(C(=O)NC(CCCCN)C(=O)N1CCCC1C(=O)NC(CCCNC(=N)N)C(=O)NCC(=O)NC(Cc1ccc(O)c(/N=N\c2ccc(OP(=O)(O)OCC[N+](C)(C)C)cc2)c1)C(=O)O)C(C)O` (stereo not shown) [Formula 5] (H-[NMeT]KPRG[X2]-OH; configuration not given here), the “chemical stability as compared to PC of Formula 2” value in data set [1] is recorded as “reduced chemical stability”.

In data set [3], `C[C@@H](O)[C@H](N)C(=O)N[C@@H](CCCCN)C(=O)N1CCC[C@H]1C(=O)N[C@@H](CCCNC(=N)N)C(=O)NCC(=O)N[C@@H](Cc1ccc(O)c(/N=N/c2ccc(OP(=O)([O-])OCC[N+](C)(C)C)cc2)c1)C(=O)O` [TRS] (H-TKPRG[X1]-OH) showed a solubility of more than 40 mg/mL.
